B4: H/M PvuII chimeric TNFα (human 1-125, murine 126-157) (ligand)
chain: VRSSSRTPSDKPVAHVVANPQAEGQLQWLNRRANALLANGVELRDNQLVVPSEGLYLIYSQVLFKGQGCPSTHVLLTHTISRIAVSYQTKVNLLSAIKSPCQRETPEGAEAKPWYEPIYLGGVFQLEKGDQLSAEVNLPKYLDFAESGQVYFGVIAL
notes: also called Hu/M PVu11
B5: H/M HincII chimeric TNFα (human 1-91, murine 92-157) (ligand)
chain: VRSSSRTPSDKPVAHVVANPQAEGQLQWLNRRANALLANGVELRDNQLVVPSEGLYLIYSQVLFKGQGCPSTHVLLTHTISRIAVSYQTKVNLLSAVKSPCPKDTPEGAELKPWYEPIYLGGVFQLEKGDQLSAEVNLPKYLDFAESGQVYFGVIAL
notes: Murine range printed 92-157 (human-aligned); also called Hu/M Hin C l1
B11: H/M BglI chimeric TNFα (human 1-36, murine 37-157) (ligand)
chain: VRSSSRTPSDKPVAHVVANPQAEGQLQWLNRRANALLANGMDLKDNQLVVPADGLYLVYSQVLFKGQGCPDYVLLTHTVSRFAISYQEKVNLLSAVKSPCPKDTPEGAELKPWYEPIYLGGVFQLEKGDQLSAEVNLPKYLDFAESGQVYFGVIAL
notes: Murine range is printed as 37-157 in human-aligned numbering; also called H/MBgl1; Hu/MBgl1

What was measured:
[1] = biological target: T1, human TNFα (Tumor Necrosis Factor-alpha), soluble (human, UniProt P01375 77-233); assay: cell-based or functional assay
human TNFα R131Q mutant = human TNFα R131Q mutant (human, UniProt P01375 77-233); assay: ELISA on chimeric/mutant TNFα
Excerpt: (§1) In order to define the binding site for different antibodies, a number of residues of hTNFα were mutated using site directed mutagenesis. A panel of antibodies was screened for binding by an ELISA assay. […] Histidine at position 73 was deleted, an example is illustrated in Table 19.

[2] = biological target: T1, human TNFα (Tumor Necrosis …); assay: ELISA on chimeric/mutant TNFα
Excerpt: as §1

[3] = biological target: T2, human TNFα with histidine 73 deleted (human, UniProt P01375 77-233); assay: ELISA on chimeric/mutant TNFα
T2 construct: Deletion of His73 written as two joined ranges; also called His 73del
T2 sequence (P01375 other isoform, or with tags, fused parts or gaps): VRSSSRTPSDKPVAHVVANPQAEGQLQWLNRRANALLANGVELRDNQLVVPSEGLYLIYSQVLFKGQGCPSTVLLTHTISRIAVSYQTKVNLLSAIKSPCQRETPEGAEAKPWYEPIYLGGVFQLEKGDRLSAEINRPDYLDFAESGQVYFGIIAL
Excerpt: as §1

human TNFα R31Q mutant = human TNFα R31Q mutant (human, UniProt P01375 77-233); assay: ELISA on chimeric/mutant TNFα
Excerpt: as §1

[4] = biological target: human TNFα R31Q, Q27E mutant (human, UniProt P01375 77-233); assay: ELISA on chimeric/mutant TNFα
Excerpt: as §1

[5] = biological target: T3, p75-hFc construct (R&D Systems) (UniProt P20333 23-257); assay: receptor-Fc binding to TNFα constructs
T3 construct: Described as similar to etanercept (Enbrel); also called p75s-hFc; Etanercept surrogate
T3 sequence (looked up): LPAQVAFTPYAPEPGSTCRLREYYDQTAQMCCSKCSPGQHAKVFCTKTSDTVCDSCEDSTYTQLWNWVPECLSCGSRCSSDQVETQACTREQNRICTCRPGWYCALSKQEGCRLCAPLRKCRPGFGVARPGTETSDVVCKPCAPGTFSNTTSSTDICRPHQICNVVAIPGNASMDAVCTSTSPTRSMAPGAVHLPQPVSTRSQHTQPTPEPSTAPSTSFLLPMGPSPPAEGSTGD

p55-hFc (R&D) = biological target: T4, p55-hFc (R&D) (UniProt P19438 30-211, limits assumed); assay: receptor-Fc binding to TNFα constructs
T4 construct: Bought reagent; also called TNFα receptor p55-hFc
T4 sequence (looked up): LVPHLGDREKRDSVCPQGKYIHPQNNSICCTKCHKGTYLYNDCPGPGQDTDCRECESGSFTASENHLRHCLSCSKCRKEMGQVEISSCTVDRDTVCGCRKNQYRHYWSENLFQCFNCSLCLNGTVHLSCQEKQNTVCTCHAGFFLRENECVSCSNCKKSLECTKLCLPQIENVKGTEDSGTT

[6] = biological target: T1, human TNFα (Tumor Necrosis …); assay: KinExA, TNFα counted as one trimer
Description: (§2) The kinetic measurements of the anti-TNFα antibodies were evaluated using KinExA® and BIACORE® technologies. The KinExA® method involves solution-based determination of formal affinity measurements at equilibrium. To measure the binding kinetics of each human anti-TNFα antibody, two experiments in replicates of three were performed. In both experiments a known concentration of antigen was titrated and a different antibody concentration was added to each antigen titration and allowed to reach binding equilibrium. […] The results were analyzed by dual curve analysis. […] In addition, to negate the possibility of avidity effects, Fab fragments were generated by papain cleavage and the kinetic analysis was repeated (see Table 24).

[7] = biological target: T1, human TNFα (Tumor Necrosis …); assay: KinExA, TNFα counted as three monomers
Description: as §2

[8] = biological target: B5; assay: ELISA on chimeric/mutant TNFα
Excerpt: as §1

[9] = biological target: B11; assay: ELISA on chimeric/mutant TNFα
Excerpt: as §1

[10] = biological target: B4; assay: ELISA on chimeric/mutant TNFα
Excerpt: as §1

B1: 3.2 g1 (antibody, human IgG1, V domains shown)
VH: EVQLVQSGAEVKKPGESLKISCKTSEYSFTSYWIGWVRQMPGKGLEWMGIIYLGDSDTRYSPSFQGQVTISADKSISTAYLQWSSLKASDTAMYYCARSNWGLDYWGQGTLVTVSS
VL: QSVLTQPPSVSGAPGQRVTISCTGSSSNIGAGYDVHWYQQFPGTAPKLLIQGNSNRPSGVPDRFSGSKSGTSASLAITGLQAEDEADYYCQSYDSSLSGSVFGGGTKLTVL
IC50 1 hr Pre-incubation, TNF induced apoptosis in MCF-7 cells [1]: 93.8 pM | IC50 18 hr Pre-incubation, TNF induced apoptosis in MCF-7 cells [1]: 38.6 pM

B2: 250 (antibody, human IgG1, V domains shown)
VH: EVQLVESGGGLIQPGGSLRLSCAASGFTVSSNYMSWVRQAPGKGLEWVSVIYSGDRTYYADSVKGRFTISRDNSKNTLYLQMNSLRAEDTAVYYCARGEGGFDYWGQGTLVTVSS
VL: EIVMTQSPATLSVSPGERATLSCRASQSVTSNLAWYQQKPGQAPRLLIHGASIRATGLPARFSGSGSGTEFTLTISSLQSEDFAVYYCQQYNYWWTFGQGTKVEIK
notes: XENOMAX derived, recombinant human IgG1 kappa; also called 250Ab; SC250
binding result (human TNFα R131Q mutant): binds | binding result [2]: binds | binding result [3]: binds | binding result (human TNFα R31Q mutant): binds | binding result [4]: binds

B3: 269 (antibody, human IgG1, V domains shown)
VH: EVQLVESGGGLIQPGGSLRLSCAASEFTVSRNYMSWVRQAPGKGLEWVSVIYSGDRTYYADSVKGRFTISRDNSKNTLYLQMNSLRAEDTAVYYCARGEGGFDYWGQGTLVTVSS
VL: EIVMTQSPATLSVSPGERATLSCRASQSVSSNLAWYQQKPGQAPRLLIHGASIRATGLPARFSGSGSGTEFTLTISSLQSEDFAVYYCQQYNYWWTFGQGTKVEIK
notes: XENOMAX derived, recombinant human IgG1 kappa; also called 269Ab; SC269
binding result (human TNFα R131Q mutant): binds | binding result [2]: binds | binding result [3]: binds | binding result (human TNFα R31Q mutant): binds | binding result [4]: binds

B4
binding result [5]: binds | binding result (p55-hFc (R&D)): binds

B5
binding result [5]: binds | binding result (p55-hFc (R&D)): binds

B6: 299v1 (antibody, human IgG1, V domains shown)
VH: QVQLVESGGGVVQPGRSLRLSCAASGFTFSSYDMHWVRQAPGKGLEWVAVIWSDGSIKYYADSVKGRFTISRDNSKNTLYLQMNSLRAEDTAVYYCAREVESAMGGFYYNGMDVWGQGATVTVSS
VL: DIQMTQSPSSLSASVGDRVTITCRASQGIRIDLGWYQQKPGKAPKRLIYAASTLQSGVPSRFSGSGSGTEFIFTISSLQPEDFASYYCLQHKSYPLTFGGGTKVEIK
notes: XENOMAX derived, recombinant human IgG1 kappa; also called SC299V1
Kd [6]: 0.63 pM | Kd (M) High [6]: 9.2e-13 M | Kd (M) Low [6]: 4.3e-13 M | Kd [7]: 1.89 pM | Kd (M) High [7]: 2.76e-12 M | Kd (M) Low [7]: 1.29e-12 M

B7: 291 (antibody, human IgG1, V domains shown)
VH: QVQLVESGGSVVQPGRSLRLSCAASGFTFSNYGIHWVRQAPGKGLEWVAVIWSDGSNKYYADSVKGRFTISRDNSKNTLYLQMNSLRAEDTAVYYCARELPNSGSYSGYYYYYGMDVWGQGTTVTVSS
VL: DIQMTQSPSSLSASVGDRVTITCRASQGIRNDLGWYQQKPGKAPKRLIYAASSLQSGVPSRFSGSGSGTEFTLTISSLQPEDFATYYCLQHCCYPLTFGGGTKVEIK
notes: XENOMAX derived, recombinant human IgG1 kappa; also called 291 Ab; SC291
binding result [8]: binds | binding result [9]: binds | binding result (human TNFα R131Q mutant): binds | binding result [10]: binds | binding result (human TNFα R31Q mutant): no binding

B8: 313 (antibody, human IgG1, V domains shown)
VH: QVQLVESGGGVVQPGRSLRLSCAASGFTFSNHDIHWVRQAPGKGLEWVAVIWSDGSNKYYADSVKGRFTISRDNSKNTLYLQMNSLRAEDTAVYYCAREKMATIKGYYYYGMDVWGQGTTVTVSS
VL: DIQMTQSPSSLSASVGDRVTITCRASQGIRNDLGWYQQKPGKAPKRLIYAASSLESGVPSRFSGSGSGPEFTLTISSLQPEDFATYYCLQHNSYPLTFGGGTKVEIQ
notes: Recombinant human IgG1 kappa; also called 313 Ab; SC313
binding result [8]: binds | binding result [9]: binds | binding result (human TNFα R131Q mutant): binds | binding result [10]: binds | binding result [2]: binds | binding result [3]: binds | binding result (human TNFα R31Q mutant): no binding

B9: 4.17 g1 (antibody, human IgG1, V domains shown)
VH: QVQLVESGGGVVQPGRSLRLSCTTSGFTFSNYGMHWVRQAPGKGLEWVAVIWYDGSIKYYVDSVKGRFTISRDNSKNTLYLQMNSLRAEDTAVYYCAREKDCGGDCYSHYGMDVWGQGTTVTVSS
VL: DIQMTQSPSSLSASVGDRVTITCRASQGIRNDLGWYQQKPGKAPKRLIYAASSLQSGVPSRFSGSGSGTEFTLTISSLQPEDFATYYCLQHMSLPLTFGGGTKVEIK
IC50 1 hr Pre-incubation, TNF induced apoptosis in MCF-7 cells [1]: 256 pM | IC50 18 hr Pre-incubation, TNF induced apoptosis in MCF-7 cells [1]: 40.4 pM

B10: 282 (antibody, human IgG1, V domains shown)
VH: QVQLVESGGGVVQPGRSLRLSCAASGFTVSSYGMHWVRQAPGKGLEWVAVIWSNGSNKYYADSVKGRFTISRDNSKNTLYLQMNSLRAEDTAVYYCARDNGVYVGYAYYYGMDVWGQGTTVTVSS
VL: DIQMTQSPSSLSASVGDRVTITCRASQGIRNDLGWYQQKPGKAPKRLIYAASSLHSGVPSRFSGSGSGTEFTLTISSLQPEDFATYYCLQHNSYPWTFGQGTKVEIK
notes: XENOMAX derived, recombinant human IgG1 kappa; also called 282 Ab; SC282
binding result (human TNFα R131Q mutant): binds | binding result [2]: binds | binding result [3]: binds | binding result (human TNFα R31Q mutant): binds | binding result [4]: binds

B11
binding result [5]: binds | binding result (p55-hFc (R&D)): binds

Source: patent publication US20050049402A1 (Amgen, published 2005)
